Biological target: the molecule itself
Assay: SEC

B1: R.Eco29kI restriction endonuclease, E142Q (enzyme, E. coli strain 29K (plasmid pECO29), UniProt Q46944 1-214, looked up)
chain: MHNKKFDRSEHVYRNDSFLELIKDAVRFFSGTPVHSLPPPERFQGAGVYALYYTGHYSLYDEYSRINRLAYNLPIYVGKAVPAGWRQSRISDHETRAGSELSNRIREHGRNIAKTSNLDLCDFSCRFVIFEATGSDMISTVQAALIKIYKPLWNTVVDGFGNHTPGAGRFAQAKSDWDVIHPGREWAEKCTGVHSEPYFIEERIKQYFSKSNFT
- stoichiometry N: 2
